Test results from patent US20250262210A1 (TRUSTEES OF COLUMBIA UNIVERSITY IN THE CITY OF NEW YORK, published 2025).

T1: LZTR1 R810W-FLAG (human, UniProt Q8N653 1-840)
T1 construct: Stably expressed in U87 cells by lentivirus; also called LZTR1-FLAG-R810W; LZTR1 RW; not shown: FLAG tag
T1 sequence (looked up): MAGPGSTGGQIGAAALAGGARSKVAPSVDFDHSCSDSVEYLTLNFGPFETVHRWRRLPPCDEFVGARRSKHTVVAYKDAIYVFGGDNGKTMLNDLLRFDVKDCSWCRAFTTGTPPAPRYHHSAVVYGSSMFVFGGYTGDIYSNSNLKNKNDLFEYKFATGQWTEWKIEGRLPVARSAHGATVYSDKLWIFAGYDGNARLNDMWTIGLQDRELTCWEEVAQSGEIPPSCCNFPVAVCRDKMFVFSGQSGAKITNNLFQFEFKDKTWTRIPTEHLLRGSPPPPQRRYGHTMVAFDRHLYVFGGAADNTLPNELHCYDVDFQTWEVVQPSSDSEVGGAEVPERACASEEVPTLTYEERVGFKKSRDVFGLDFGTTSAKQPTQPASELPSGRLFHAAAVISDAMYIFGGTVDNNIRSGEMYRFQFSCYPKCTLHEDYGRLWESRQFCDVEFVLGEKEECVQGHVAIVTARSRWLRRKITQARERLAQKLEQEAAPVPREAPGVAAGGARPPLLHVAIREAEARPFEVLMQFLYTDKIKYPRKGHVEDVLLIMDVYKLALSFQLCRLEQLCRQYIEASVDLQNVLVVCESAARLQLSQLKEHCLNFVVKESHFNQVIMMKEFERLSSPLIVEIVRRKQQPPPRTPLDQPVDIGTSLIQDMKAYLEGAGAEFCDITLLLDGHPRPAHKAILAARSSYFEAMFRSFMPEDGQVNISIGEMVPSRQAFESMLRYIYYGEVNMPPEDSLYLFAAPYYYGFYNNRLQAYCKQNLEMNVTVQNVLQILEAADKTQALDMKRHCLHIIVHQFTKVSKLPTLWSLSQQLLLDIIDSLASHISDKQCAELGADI

T2: LZTR1-FLAG (human, UniProt Q8N653 1-840)
T2 construct: Expressed in HEK 293T, HeLa or U87 cells; used as cell lysate; also called LZTR1 wild type-FLAG; LZTR1 WT; not shown: FLAG tag at the C-terminus
T2 sequence (looked up): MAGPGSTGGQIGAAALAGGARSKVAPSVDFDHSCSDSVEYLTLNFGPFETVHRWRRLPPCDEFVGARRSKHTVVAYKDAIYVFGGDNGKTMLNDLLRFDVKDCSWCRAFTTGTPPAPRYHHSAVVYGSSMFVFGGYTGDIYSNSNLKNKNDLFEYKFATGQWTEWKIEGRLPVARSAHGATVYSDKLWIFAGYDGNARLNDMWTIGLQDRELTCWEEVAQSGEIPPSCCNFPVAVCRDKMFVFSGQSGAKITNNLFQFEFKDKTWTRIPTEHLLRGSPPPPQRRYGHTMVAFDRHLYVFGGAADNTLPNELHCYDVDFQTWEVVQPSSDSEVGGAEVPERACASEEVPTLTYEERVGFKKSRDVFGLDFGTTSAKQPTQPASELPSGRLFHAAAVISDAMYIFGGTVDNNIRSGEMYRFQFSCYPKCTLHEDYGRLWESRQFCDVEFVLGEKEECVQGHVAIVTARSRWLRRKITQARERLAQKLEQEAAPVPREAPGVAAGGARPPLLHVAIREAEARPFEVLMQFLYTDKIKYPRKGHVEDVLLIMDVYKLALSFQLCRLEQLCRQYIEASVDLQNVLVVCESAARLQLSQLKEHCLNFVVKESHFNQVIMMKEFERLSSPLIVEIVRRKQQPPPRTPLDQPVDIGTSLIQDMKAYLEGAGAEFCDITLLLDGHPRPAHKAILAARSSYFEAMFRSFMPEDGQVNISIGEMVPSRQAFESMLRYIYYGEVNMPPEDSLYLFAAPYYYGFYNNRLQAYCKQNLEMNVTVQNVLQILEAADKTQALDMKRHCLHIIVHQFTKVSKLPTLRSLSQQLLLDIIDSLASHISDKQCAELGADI


Legend:
LZTR1 R810W-FLAG = molecular target: T1, LZTR1 R810W-FLAG; assay: IP/MS, LZTR1 R810W-FLAG, U87
In short: (§1)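 Read-out: spectral counts from LC-MS/MS (Orbitrap Fusion) after MaxQuant identification. Variable modifications were Met oxidation, protein N-terminal acetylation and N/Q deamidation.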

LZTR1-FLAG = molecular target: T2, LZTR1-FLAG; assay: IP/MS, LZTR1 wild type-FLAG, U87
In short: as §1

Binder	binding result (LZTR1 R810W-FLAG)	binding result (LZTR1-FLAG)
TRAPPC12 (other, human, UniProt Q8WVT3 1-735, looked up) MEDAGGGEETPAPEAPHPPQLAPPEEQGLLFQEETIDLGGDEFGSEENETASEGSSPLADKLNEHMMESVLISDSPNSEGDAGDLGRVRDEAEPGGEGDPGPEPAGTPSPSGEADGDCAPEDAAPSSGGAPRQDAAREVPGSEAARPEQEPPVAEPVPVCTIFSQRAPPASGDGFEPQMVKSPSFGGASEASARTPPQVVQPSPSLSTFFGDTAASHSLASDFFDSFTTSAFISVSNPGAGSPAPASPPPLAVPGTEGRPEPVAMRGPQAAAPPASPEPFAHIQAVFAGSDDPFATALSMSEMDRRNDAWLPGEATRGVLRAVATQQRGAVFVDKENLTMPGLRFDNIQGDAVKDLMLRFLGEKAAAKRQVLNADSVEQSFVGLKQLISCRNWRAAVDLCGRLLTAHGQGYGKSGLLTSHTTDSLQLWFVRLALLVKLGLFQNAEMEFEPFGNLDQPDLYYEYYPHVYPGRRGSMVPFSMRILHAELQQYLGNPQESLDRLHKVKTVCSKILANLEQGLAEDGGMSSVTQEGRQASIRLWRSRLGRVMYSMANCLLLMKDYVLAVEAYHSVIKYYPEQEPQLLSGIGRISLQIGDIKTAEKYFQDVEKVTQKLDGLQGKIMVLMNSAFLHLGQNNFAEAHRFFTEILRMDPRNAVANNNAAVCLLYLGKLKDSLRQLEAMVQQDPRHYLHESVLFNLTTMYELESSRSMQKKQALLEAVAGKEGDSFNTQCLKLA	binds	binds
UTP6 (other, human, UniProt Q9NYH9 1-597, looked up) MAEIIQERIEDRLPELEQLERIGLFSHAEIKAIIKKASDLEYKIQRRTLFKEDFINYVQYEINLLELIQRRRTRIGYSFKKDEIENSIVHRVQGVFQRASAKWKDDVQLWLSYVAFCKKWATKTRLSKVFSAMLAIHSNKPALWIMAAKWEMEDRLSSESARQLFLRALRFHPECPKLYKEYFRMELMHAEKLRKEKEEFEKASMDVENPDYSEEILKGELAWIIYKNSVSIIKGAEFHVSLLSIAQLFDFAKDLQKEIYDDLQALHTDDPLTWDYVARRELEIESQTEEQPTTKQAKAVEVGRKEERCCAVYEEAVKTLPTEAMWKCYITFCLERFTKKSNSGFLRGKRLERTMTVFRKAHELKLLSECQYKQLSVSLLCYNFLREALEVAVAGTELFRDSGTMWQLKLQVLIESKSPDIAMLFEEAFVHLKPQVCLPLWISWAEWSEGAKSQEDTEAVFKKALLAVIGADSVTLKNKYLDWAYRSGGYKKARAVFKSLQESRPFSVDFFRKMIQFEKEQESCNMANIREYYERALREFGSADSDLWMDYMKEELNHPLGRPENCGQIYWRAMKMLQGESAEAFVAKHAMHQTGHL	binds	binds
UMPS (other, human, UniProt P11172 2-480, looked up) AVARAALGPLVTGLYDVQAFKFGDFVLKSGLSSPIYIDLRGIVSRPRLLSQVADILFQTAQNAGISFDTVCGVPYTALPLATVICSTNQIPMLIRRKETKDYGTKRLVEGTINPGETCLIIEDVVTSGSSVLETVEVLQKEGLKVTDAIVLLDREQGGKDKLQAHGIRLHSVCTLSKMLEILEQQKKVDAETVGRVKRFIQENVFVAANHNGSPLSIKEAPKELSFGARAELPRIHPVASKLLRLMQKKETNLCLSADVSLARELLQLADALGPSICMLKTHVDILNDFTLDVMKELITLAKCHEFLIFEDRKFADIGNTVKKQYEGGIFKIASWADLVNAHVVPGSGVVKGLQEVGLPLHRGCLLIAEMSSTGSLATGDYTRAAVRMAEEHSEFVVGFISGSRVSMKPEFLHLTPGVQLEAGGDNLGQQYNSPQEVIGKRGSDIIIVGRGIISAADRLEAAEMYRKAAWEAYLSRLGV	binds	binds
UFL1 (other, human, UniProt O94874 2-794, looked up) ADAWEEIRRLAADFQRAQFAEATQRLSERNCIEIVNKLIAQKQLEVVHTLDGKEYITPAQISKEMRDELHVRGGRVNIVDLQQVINVDLIHIENRIGDIIKSEKHVQLVLGQLIDENYLDRLAEEVNDKLQESGQVTISELCKTYDLPGNFLTQALTQRLGRIISGHIDLDNRGVIFTEAFVARHKARIRGLFSAITRPTAVNSLISKYGFQEQLLYSVLEELVNSGRLRGTVVGGRQDKAVFVPDIYSRTQSTWVDSFFRQNGYLEFDALSRLGIPDAVSYIKKRYKTTQLLFLKAACVGQGLVDQVEASVEEAISSGTWVDIAPLLPTSLSVEDAAILLQQVMRAFSKQASTVVFSDTVVVSEKFINDCTELFRELMHQKAEKEMKNNPVHLITEEDLKQISTLESVSTSKKDKKDERRRKATEGSGSMRGGGGGNAREYKIKKVKKKGRKDDDSDDESQSSHTGKKKPEISFMFQDEIEDFLRKHIQDAPEEFISELAEYLIKPLNKTYLEVVRSVFMSSTTSASGTGRKRTIKDLQEEVSNLYNNIRLFEKGMKFFADDTQAALTKHLLKSVCTDITNLIFNFLASDLMMAVDDPAAITSEIRKKILSKLSEETKVALTKLHNSLNEKSIEDFISCLDSAAEACDIMVKRGDKKRERQILFQHRQALAEQLKVTEDPALILHLTSVLLFQFSTHSMLHAPGRCVPQIIAFLNSKIPEDQHALLVKYQGLVVKQLVSQSKKTGQGDYPLNNELDKEQEDVASTTRKELQELSSSIKDLVLKSRKSSVTEE	binds	binds

Now from value to binder:

binding result (LZTR1 R810W-FLAG)	binding result (LZTR1-FLAG)	Binder
binds	binds	UBXN6 (other, human, UniProt Q9BZV1 1-441, looked up) MKKFFQEFKADIKFKSAGPGQKLKESVGEKAHKEKPNQPAPRPPRQGPTNEAQMAAAAALARLEQKQSRAWGPTSQDTIRNQVRKELQAEATVSGSPEAPGTNVVSEPREEGSAHLAVPGVYFTCPLTGATLRKDQRDACIKEAILLHFSTDPVAASIMKIYTFNKDQDRVKLGVDTIAKYLDNIHLHPEEEKYRKIKLQNKVFQERINCLEGTHEFFEAIGFQKVLLPAQDQEDPEEFYVLSETTLAQPQSLERHKEQLLAAEPVRAKLDRQRRVFQPSPLASQFELPGDFFNLTAEEIKREQRLRSEAVERLSVLRTKAMREKEEQRGLRKYNYTLLRVRLPDGCLLQGTFYARERLGAVYGFVREALQSDWLPFELLASGGQKLSEDENLALNECGLVPSALLTFSWDMAVLEDIKAAGAEPDSILKPELLSAIEKLL
binds	binds	TRIM47 (other, human, UniProt Q96LD4 1-638, looked up) MDGSGPFSCPICLEPLREPVTLPCGHNFCLACLGALWPHRGASGAGGPGGAARCPLCQEPFPDGLQLRKNHTLSELLQLRQGSGPGSGPGPAPALAPEPSAPSALPSVPEPSAPCAPEPWPAGEEPVRCDACPEGAALPAALSCLSCLASFCPAHLGPHERSPALRGHRLVPPLRRLEESLCPRHLRPLERYCRAERVCLCEACAAQEHRGHELVPLEQERALQEAEQSKVLSAVEDRMDELGAGIAQSRRTVALIKSAAVAERERVSRLFADAAAALQGFQTQVLGFIEEGEAAMLGRSQGDLRRQEEQRSRLSRARQNLSQVPEADSVSFLQELLALRLALEDGCGPGPGPPRELSFTKSSQAVRAVRDMLAVACVNQWEQLRGPGGNEDGPQKLDSEADAEPQDLESTNLLESEAPRDYFLKFAYIVDLDSDTADKFLQLFGTKGVKRVLCPINYPLSPTRFTHCEQVLGEGALDRGTYYWEVEIIEGWVSMGVMAEDFSPQEPYDRGRLGRNAHSCCLQWNGRSFSVWFHGLEAPLPHPFSPTVGVCLEYADRALAFYAVRDGKMSLLRRLKASRPRRGGIPASPIDPFQSRLDSHFAGLFTHRLKPAFFLESVDAHLQIGPLKKSCISVLKRR
